Experimental data: patent publication US20250376667A1

B1: matrix metalloproteinase 7 (MMP7) (enzyme, UniProt P09237 95-267, looked up, species assumed)
Matrilysin: YSLFPNSPKWTSKVVTYRIVSYTRDLPHITVDRLVSKALNMWGKEIPLHFRKVVWGTADIMIGFARGAHGDSYPFDGPGNTLAHAFAPGTGLGGDAHFDEDERWTDGSSLGINFLYAATHELGHSLGMGHSSDPNAVMYPTYGNGDPQNFKLSQDDIKGIQKLYGKRSNSRKK

Columns and labels:
[1] = tested on: control peptide comprising PCL1 (PCL1 Pep)
[2] = tested on: KL958 (C521S C370S)-PCL1-HSA

control peptide comprising PCL1 (PCL1 Pep), sequence (chain, as listed by the source): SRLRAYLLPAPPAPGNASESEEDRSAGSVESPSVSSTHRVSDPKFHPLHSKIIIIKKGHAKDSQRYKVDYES

Molecule | protease cleavage of the peptide in vitro [1] | protease cleavage in reaction buffer, immunoblot with anti-KL antibodies [2] | protease cleavage in reaction buffer, immunoblot with anti-KL antibodies (KL958 (C521S)-PCL1-HSA)
kallikrein 2 (KLK2) | The ability of two proteases, kallikrein 2 (KLK2) and matrix metalloproteinase 7 (MMP7), to cleave the protease cleavable linker PCL1 was confirmed using a control peptide comprising PCL1 (PCL1 Pep) |  | 
B1 | The ability of two proteases, kallikrein 2 (KLK2) and matrix metalloproteinase 7 (MMP7), to cleave the protease cleavable linker PCL1 was confirmed using a control peptide comprising PCL1 (PCL1 Pep) | PCL1-containing KL polypeptides displayed cleavage of the linker, resulting in a shorter KL polypeptide in the presence of MMP7 | PCL1-containing KL polypeptides displayed cleavage of the linker, resulting in a shorter KL polypeptide in the presence of MMP7
